# Measured values: article PMC4067742, “Direct Observations of Amyloid β Self-Assembly in Live Cells Provide Insights into Differences in the Kinetics of Aβ(1–40) and Aβ(1–42) Aggregation” (Chemistry & Biology, 2014)
# Columns and labels:
# trypsin = assay: Fluorescence lifetime after trypsin treatment of the labeled peptide; assay type: physicochemical; conditions: trypsin-treated monomeric peptide, cleavage into short fragments; FLIM; mean ± SD
# Description: For the HF488 dye to function as a direct reporter of amyloid formation in vivo, its fluorescence lifetime must respond to the conformational changes associated with amyloid formation but remain largely unaffected by extrinsic factors, such as the solution conditions that the Aβ peptides may encounter in the living cell. […] That is, it is insensitive to pH changes in this range. […] Furthermore, the fluorescence lifetime of the unconjugated HF488 dye (4.0 ± 0.1 ns) is longer than that of the Aβ-conjugated dye (3.7 ± 0.05 ns), perhaps as a result of interactions between the dye and the polypeptide chain in the latter case ([Chen et al., 2010]). […]
# All FLIM experiments were carried out using HF488-labeled Aβ peptides, and images were recorded by time-correlated single photon counting (TCSPC) using a confocal microscopy platform built on an Olympus Fluoview FV300 confocal scan unit. […] The excitation beam was reflected onto the sample with a 20/80 broad bandwidth coated beam splitter so that 20% of the excitation light passed on to the sample and 80% of the fluorescence signal was reflected toward the confocal pinhole. The fluorescence light was passed through a 515-nm Semrock long-pass filter (Laser 2000) and passed onto a fast photomultiplier tube (PMC-100, Becker & Hickl). Lifetimes were recorded using TCSPC circuitry (SPC-830, Becker & Hickl). […]
# [1] = Fluorescence lifetime imaging (FLIM) of amyloid fibril formation in vitro; assay type: physicochemical; conditions: for fluorescence lifetime of larger aggregates deposited on the coverslip: FLIM, 'often in the range of'; for mean fluorescence lifetime, monomeric peptide: beginning of time course / before trypsin
# Description: We first examined whether a Hilyte Fluor 488 (HF488) dye attached to the N termini of Aβ(1–40) and Aβ(1–42) could act as a reporter of amyloid formation by monitoring how the fluorescence intensity of the dye changes as fibril formation occurs in vitro for each of the two Aβ isoforms. The appearance of fibrillar species was identified by means of dot blot experiments using the conformation-specific antibody LOC ([Kayed et al., 2007]), and the HF488 fluorescence intensity was measured in parallel (Figure 1A; Figure S1 available online). […] This small difference, however, could result from the fact that LOC recognizes fibrillar oligomers as well as amyloid fibrils, whereas the fluorescence quenching is likely to be associated predominately with amyloid fibrils. We also confirmed the formation of β sheet structure by measurement of circular dichroism spectra at the beginning and end of the time course of the experiment (Figure 1B). Next, we used FLIM to analyze these samples collected at the beginning and end of the time course of the experiment. The fluorescence lifetimes in each pixel of these images were obtained by fitting monoexponential decay functions to the observed time-resolved fluorescence decays, and the data and images are shown in Figures 1C and 1D.
# All in vitro experiments were performed at a peptide concentration of 5 μM in 50 mM sodium phosphate buffer at pH 7.4. Aggregation kinetics were monitored by steady-state fluorescence in a FLUOstar Optima microplate reader (BMG Labtech) and sealed black Costar half-area, 96-well plates (Corning Life Sciences). Data were recorded at 5-min intervals using a 480-nm bandpass filter for excitation and a 520-nm bandpass filter for emission. Orbital shaking (300 rpm, 10 s) was carried out prior to each recording to ensure that each sample was homogenous. Sample aliquots for dot blot analysis were taken at the indicated time points and immediately flash-frozen in liquid nitrogen. These aliquots were thawed by dilution into phosphate buffer to a total volume of 25 μl and immediately blotted onto a nitrocellulose membrane using a Bio-Rad dot blot apparatus. The membrane was blocked with 5% (w/v) dry milk and 0.1% Triton X-100 in PBS and stained with LOC as the primary antibody and an Alexa Fluor 647-labeled anti-rabbit antibody as the secondary antibody (Life Technologies). The blots were imaged on a Typhoon 9400 scanner (GE Healthcare) using the 633-nm laser line for excitation. Densitometric analysis of the blots was carried out using ImageJ. ([Schneider et al., 2012]). Aβ samples for in vitro fluorescence lifetime imaging were placed in a glass-bottomed tissue culture dish (MatTek) and sealed with a coverslip and nail varnish to avoid evaporation.
# All FLIM experiments were carried out using HF488-labeled Aβ peptides, and images were recorded by time-correlated single photon counting (TCSPC) using a confocal microscopy platform built on an Olympus Fluoview FV300 confocal scan unit. A pulsed supercontinuum source (SC 450, Fianium) was used for excitation, emitting a train of sub-10-picosecond pulses at 40 MHz repetition rate. The output beam was collimated and passed through a hot mirror assembly to remove infrared components at wavelengths greater than 700 nm. The visible portion of the spectrum was passed through an acousto-optic tunable filter (AOTFnC-VIS, AA Opto-Electronic) whose radio frequency modulator was driven by software developed using LabVIEW (National Instruments). The excitation wavelength was set to 480 nm. The excitation beam was reflected onto the sample with a 20/80 broad bandwidth coated beam splitter so that 20% of the excitation light passed on to the sample and 80% of the fluorescence signal was reflected toward the confocal pinhole. The fluorescence light was passed through a 515-nm Semrock long-pass filter (Laser 2000) and passed onto a fast photomultiplier tube (PMC-100, Becker & Hickl). Lifetimes were recorded using TCSPC circuitry (SPC-830, Becker & Hickl). […]
# [2] = 5 μM peptide in 50 mM sodium phosphate buffer pH 7.4
# [3] = 5 μM peptide in 50 mM sodium phosphate buffer pH 7.4, FLIM (TCSPC), monoexponential fit, mean ± SD
Substance,mean fluorescence lifetime after trypsin treatment (trypsin),"lag phase of fibril formation in vitro (decrease in fluorescence lifetime) ([1]; 5 μM peptide in 50 mM sodium phosphate buffer pH 7.4, droplet on FLIM microscope stage, sigmoidal decrease (Figure S2A))","fluorescence lifetime of larger aggregates deposited on the coverslip [1, 2]","mean fluorescence lifetime, monomeric peptide [1, 3]","mean fluorescence lifetime, solutions containing fibrillar peptide ([1]; aggregation read-out, 5 μM peptide in 50 mM sodium phosphate buffer pH 7.4, end of time course, FLIM (TCSPC), monoexponential fit, mean ± SD)"
"^HF488Aβ(1–40): Synthetic 40-residue amyloid β peptide labeled at the N terminus with Hilyte Fluor 488, purchased from Anaspec",4.0 ± 0.1 ns,approximately 2.5 hr,2.5–3.0 ns,3.7 ± 0.1 ns,
"^HF488Aβ(1–42): Synthetic 42-residue amyloid β peptide labeled at the N terminus with Hilyte Fluor 488, purchased from Anaspec",,,2.5–3.0 ns,3.7 ± 0.05 ns,3.3 ± 0.1 ns
